Results: patent US20230181729A1 (IMMATICS BIOTECHNOLOGIES, published 2023)
One block for each binder: values may come before it.

Target: HLA-A*02/PRAME-004 presented on cells (PRAME-004-loaded T2 cells or PRAME-004-positive tumor cell lines) (human)
Assay: cell-based or functional assay

EC50 of IFNγ release by CD8+ T cells re-expressing the TCR; T2 cells loaded with PRAME-004 (10 µM to 10 pM): 1.83 nM
B1: TCR R17P1D7 (TCR, V domains shown)
V domain 1: QTVTQSQPEMSVQEAETVTLSCTYDTSESDYYLFWYKQPPSRQMILVIRQEAYKQQNATENRFSVNFQKAAKSFSLKISDSQLGDAAMYFCAYRWAQGGSEKLVFGKGTKLTVNP
V domain 2: DIYQTPRYLVIGTGKKITLECSQTMGHDKMYWYQQDPGMELHLIHYSYGVNSTEKGDLSSESTVSRIRTEHFPLTLESARPSHTSQYLCATELWSSGGTGELFFGEGSRLTVLE

EC50 of IFNγ release by CD8+ T cells re-expressing the TCR; T2 cells loaded with PRAME-004 (10 µM to 10 pM): ~1 µM
B2: TCR R16P1E8 (TCR, V domains shown)
V domain 1: QKEVEQDPGPLSVPEGAIVSLNCTYSNSAFQYFMWYRQYSRKGPELLMYTYSSGNKEDGRFTAQVDKSSKYISLFIRDSQPSDSATYLCAMSEAAGNKLTFGGGTRVLVKP
V domain 2: EAGVAQSPRYKIIEKRQSVAFWCNPISGHATLYWYQQILGQGPKLLIQFQNNGVVDDSQLPKDRFSAERLKGVDSTLKIQPAKLEDSAVYLCASSYTNQGEAFFGQGTRLTVVE
